Measured values taken from article PMC9482650, “Quantitative fragmentomics allow affinity mapping of interactomes” (Nature Communications, 2022).

Each binder was assayed against T1, APBA2_1, Q99767 (assay: holdup assay). Settings: plain residues with an end cap or a label only (N-terminal biotin on a linker: ado-ado).
T1 sequence (Q99767 563-664, limits assumed, looked up): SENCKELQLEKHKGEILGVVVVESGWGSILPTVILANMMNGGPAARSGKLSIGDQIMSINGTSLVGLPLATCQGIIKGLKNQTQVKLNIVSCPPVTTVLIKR
Parameters: key: below the threshold = too weak to quantify, mostly under pKd 3.1 to 4

Row | Binder | pKd
1 | VKRNSKETVV [MARCHF3, Q86UD3] | below the threshold
2 | ILRKSTTTTV [PRR16, Q569H4] | below the threshold

What follows are binders tested against T2, APBA3_1, O96018 (assay: holdup assay). Settings: plain residues with an end cap or a label only (N-terminal biotin on a linker: ado-ado).
T2 sequence (O96018 389-490, limits assumed, looked up): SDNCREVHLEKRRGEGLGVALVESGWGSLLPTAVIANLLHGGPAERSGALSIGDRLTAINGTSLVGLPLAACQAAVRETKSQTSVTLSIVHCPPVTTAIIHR
Parameters: key: below the threshold = too weak to quantify, mostly under pKd 3.1 to 4

Row | Binder | pKd
3 | VKRNSKETVV [MARCHF3, Q86UD3] | below the threshold
4 | ILRKSTTTTV [PRR16, Q569H4] | below the threshold

These binders were tested against T3, DFNB31_2, Q9P202 (assay: holdup assay). Settings: plain residues with an end cap or a label only (N-terminal biotin on a linker: ado-ado).
T3 sequence (Q9P202 274-371, limits assumed, looked up): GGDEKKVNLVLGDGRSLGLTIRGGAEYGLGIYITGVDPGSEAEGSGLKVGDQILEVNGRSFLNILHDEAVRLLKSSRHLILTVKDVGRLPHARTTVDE
Parameters: key: below the threshold = too weak to quantify, mostly under pKd 3.1 to 4

Row | Binder | pKd
5 | VKRNSKETVV [MARCHF3, Q86UD3] | below the threshold
6 | ILRKSTTTTV [PRR16, Q569H4] | below the threshold

The binders below were run against T4, DFNB31_3, Q9P202 (assay: holdup assay). Settings: plain residues with an end cap or a label only (N-terminal biotin on a linker: ado-ado).
T4 sequence (Q9P202 811-907, limits assumed, looked up): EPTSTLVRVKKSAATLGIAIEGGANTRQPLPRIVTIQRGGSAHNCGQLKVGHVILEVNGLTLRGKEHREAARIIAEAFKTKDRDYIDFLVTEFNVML
Parameters: key: below the threshold = too weak to quantify, mostly under pKd 3.1 to 4

Row | Binder | pKd
7 | VKRNSKETVV [MARCHF3, Q86UD3] | 3.92
8 | ILRKSTTTTV [PRR16, Q569H4] | below the threshold

The binders below were run against T5, DLG3_2, Q92796 (assay: holdup assay). Settings: plain residues with an end cap or a label only (N-terminal biotin on a linker: ado-ado).
T5 sequence (Q92796 221-321, limits assumed, looked up): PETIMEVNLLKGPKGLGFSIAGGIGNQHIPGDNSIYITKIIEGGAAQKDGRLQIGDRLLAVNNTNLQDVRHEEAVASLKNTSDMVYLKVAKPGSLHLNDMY
Parameters: key: below the threshold = too weak to quantify, mostly under pKd 3.1 to 4

Row | Binder | pKd
9 | VKRNSKETVV [MARCHF3, Q86UD3] | 5.52
10 | ILRKSTTTTV [PRR16, Q569H4] | 5.07

The binders below were run against T6, DLG3_3, Q92796 (assay: holdup assay). Settings: plain residues with an end cap or a label only (N-terminal biotin on a linker: ado-ado).
T6 sequence (Q92796 374-475, limits assumed, looked up): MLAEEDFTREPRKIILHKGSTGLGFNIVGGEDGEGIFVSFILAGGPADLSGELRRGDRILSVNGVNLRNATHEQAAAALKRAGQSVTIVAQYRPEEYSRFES
Parameters: key: below the threshold = too weak to quantify, mostly under pKd 3.1 to 4

Row | Binder | pKd
11 | VKRNSKETVV [MARCHF3, Q86UD3] | 4.7
12 | ILRKSTTTTV [PRR16, Q569H4] | 3.97

What follows are binders tested against DLG4_3, P78352 (assay: holdup assay). Settings: plain residues with an end cap or a label only (N-terminal biotin on a linker: ado-ado).
Chain of DLG4_3, P78352 (P78352 306-403): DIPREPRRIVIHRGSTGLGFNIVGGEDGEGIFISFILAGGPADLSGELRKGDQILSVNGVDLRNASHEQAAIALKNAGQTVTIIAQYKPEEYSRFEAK
Parameters: key: below the threshold = too weak to quantify, mostly under pKd 3.1 to 4

Row | Binder | pKd
13 | VKRNSKETVV [MARCHF3, Q86UD3] | 4.94
14 | ILRKSTTTTV [PRR16, Q569H4] | 4.12

The binders below were run against GRASP, Q7Z6J2 (assay: holdup assay). Settings: plain residues with an end cap or a label only (N-terminal biotin on a linker: ado-ado).
Chain of GRASP, Q7Z6J2 (Q7Z6J2 96-193): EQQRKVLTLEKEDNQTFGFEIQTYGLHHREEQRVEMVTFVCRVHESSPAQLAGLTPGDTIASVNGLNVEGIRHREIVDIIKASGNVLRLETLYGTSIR
Parameters: key: below the threshold = too weak to quantify, mostly under pKd 3.1 to 4

Row | Binder | pKd
15 | VKRNSKETVV [MARCHF3, Q86UD3] | below the threshold
16 | ILRKSTTTTV [PRR16, Q569H4] | 4.41

What follows are binders tested against GRIP2_5, Q9C0E4 (assay: holdup assay). Settings: plain residues with an end cap or a label only (N-terminal biotin on a linker: ado-ado).
Chain of GRIP2_5, Q9C0E4 (Q9C0E4 544-642): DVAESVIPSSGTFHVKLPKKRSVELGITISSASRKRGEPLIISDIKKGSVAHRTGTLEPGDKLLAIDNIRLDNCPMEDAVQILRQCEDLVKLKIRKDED
Parameters: key: below the threshold = too weak to quantify, mostly under pKd 3.1 to 4

Row | Binder | pKd
17 | VKRNSKETVV [MARCHF3, Q86UD3] | below the threshold
18 | ILRKSTTTTV [PRR16, Q569H4] | below the threshold

Each binder was assayed against HTRA1, Q92743 (assay: holdup assay). Settings: plain residues with an end cap or a label only (N-terminal biotin on a linker: ado-ado).
Chain of HTRA1, Q92743 (Q92743 360-477): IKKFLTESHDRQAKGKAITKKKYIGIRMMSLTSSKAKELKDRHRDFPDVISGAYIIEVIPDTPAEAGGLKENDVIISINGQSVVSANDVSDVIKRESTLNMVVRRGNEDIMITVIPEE
Parameters: key: below the threshold = too weak to quantify, mostly under pKd 3.1 to 4

Row | Binder | pKd
19 | VKRNSKETVV [MARCHF3, Q86UD3] | 4.35
20 | ILRKSTTTTV [PRR16, Q569H4] | 4.06

These binders were tested against T7, HTRA3, P83110 (assay: holdup assay). Settings: plain residues with an end cap or a label only (N-terminal biotin on a linker: ado-ado).
T7 sequence (P83110 354-453, limits assumed, looked up): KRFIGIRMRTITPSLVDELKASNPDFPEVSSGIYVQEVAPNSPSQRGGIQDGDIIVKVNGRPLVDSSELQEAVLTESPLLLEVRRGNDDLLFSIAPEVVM
Parameters: key: below the threshold = too weak to quantify, mostly under pKd 3.1 to 4

Row | Binder | pKd
21 | VKRNSKETVV [MARCHF3, Q86UD3] | below the threshold
22 | ILRKSTTTTV [PRR16, Q569H4] | below the threshold

The binders below were run against IL16_1, Q14005 (assay: holdup assay). Settings: plain residues with an end cap or a label only (N-terminal biotin on a linker: ado-ado).
Chain of IL16_1, Q14005 (Q14005 210-306): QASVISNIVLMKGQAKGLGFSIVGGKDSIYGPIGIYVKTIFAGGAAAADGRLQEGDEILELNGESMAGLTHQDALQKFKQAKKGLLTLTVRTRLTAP
Parameters: key: below the threshold = too weak to quantify, mostly under pKd 3.1 to 4

Row | Binder | pKd
23 | VKRNSKETVV [MARCHF3, Q86UD3] | 3.94
24 | ILRKSTTTTV [PRR16, Q569H4] | below the threshold

These binders were tested against IL16_4, Q14005 (assay: holdup assay). Settings: plain residues with an end cap or a label only (N-terminal biotin on a linker: ado-ado).
Chain of IL16_4, Q14005 (Q14005 1229-1329): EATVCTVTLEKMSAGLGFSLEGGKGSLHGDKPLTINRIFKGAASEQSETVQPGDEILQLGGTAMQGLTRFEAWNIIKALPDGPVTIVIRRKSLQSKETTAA
Parameters: key: below the threshold = too weak to quantify, mostly under pKd 3.1 to 4

Row | Binder | pKd
25 | VKRNSKETVV [MARCHF3, Q86UD3] | below the threshold
26 | ILRKSTTTTV [PRR16, Q569H4] | 3.54

What follows are binders tested against Inadl_2, Q8NI35 (assay: holdup assay). Settings: plain residues with an end cap or a label only (N-terminal biotin on a linker: ado-ado).
Chain of Inadl_2, Q8NI35 (Q8NI35 238-335): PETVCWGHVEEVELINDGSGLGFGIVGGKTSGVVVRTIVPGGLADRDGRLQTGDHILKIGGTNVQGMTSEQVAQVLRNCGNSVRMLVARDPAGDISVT
Parameters: key: below the threshold = too weak to quantify, mostly under pKd 3.1 to 4

Row | Binder | pKd
27 | VKRNSKETVV [MARCHF3, Q86UD3] | below the threshold
28 | ILRKSTTTTV [PRR16, Q569H4] | below the threshold

These binders were tested against Inadl_6, Q8NI35 (assay: holdup assay). Settings: plain residues with an end cap or a label only (N-terminal biotin on a linker: ado-ado).
Chain of Inadl_6, Q8NI35 (Q8NI35 1058-1167): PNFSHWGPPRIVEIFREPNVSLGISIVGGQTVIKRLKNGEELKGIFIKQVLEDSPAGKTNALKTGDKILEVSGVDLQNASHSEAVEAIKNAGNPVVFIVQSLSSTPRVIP
Parameters: key: below the threshold = too weak to quantify, mostly under pKd 3.1 to 4

Row | Binder | pKd
29 | VKRNSKETVV [MARCHF3, Q86UD3] | below the threshold
30 | ILRKSTTTTV [PRR16, Q569H4] | below the threshold

These binders were tested against Inadl_9, Q8NI35 (assay: holdup assay). Settings: plain residues with an end cap or a label only (N-terminal biotin on a linker: ado-ado).
Chain of Inadl_9, Q8NI35 (Q8NI35 1530-1615): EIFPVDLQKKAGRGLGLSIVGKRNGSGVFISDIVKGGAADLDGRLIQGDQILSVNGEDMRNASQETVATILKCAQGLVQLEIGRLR
Parameters: key: below the threshold = too weak to quantify, mostly under pKd 3.1 to 4

Row | Binder | pKd
31 | VKRNSKETVV [MARCHF3, Q86UD3] | below the threshold
32 | ILRKSTTTTV [PRR16, Q569H4] | below the threshold

Each binder was assayed against LAP2, Q96RT1 (assay: holdup assay). Settings: plain residues with an end cap or a label only (N-terminal biotin on a linker: ado-ado).
Chain of LAP2, Q96RT1 (Q96RT1 other isoform, or with tags, fused parts or gaps): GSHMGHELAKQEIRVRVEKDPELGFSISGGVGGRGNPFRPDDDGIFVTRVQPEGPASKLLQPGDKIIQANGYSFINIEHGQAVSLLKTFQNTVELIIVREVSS
Parameters: key: below the threshold = too weak to quantify, mostly under pKd 3.1 to 4

Row | Binder | pKd
33 | VKRNSKETVV [MARCHF3, Q86UD3] | 3.54
34 | ILRKSTTTTV [PRR16, Q569H4] | below the threshold

The binders below were run against LNX1_2, Q8TBB1 (assay: holdup assay). Settings: plain residues with an end cap or a label only (N-terminal biotin on a linker: ado-ado).
Chain of LNX1_2, Q8TBB1 (Q8TBB1 371-470): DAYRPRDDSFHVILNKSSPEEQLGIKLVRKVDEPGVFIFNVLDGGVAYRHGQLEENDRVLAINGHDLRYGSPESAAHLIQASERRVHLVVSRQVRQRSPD
Parameters: key: below the threshold = too weak to quantify, mostly under pKd 3.1 to 4

Row | Binder | pKd
35 | VKRNSKETVV [MARCHF3, Q86UD3] | 3.68
36 | ILRKSTTTTV [PRR16, Q569H4] | 3.8

The binders below were run against MAGI2_4, Q86UL8 (assay: holdup assay). Settings: plain residues with an end cap or a label only (N-terminal biotin on a linker: ado-ado).
Chain of MAGI2_4, Q86UL8 (Q86UL8 772-865): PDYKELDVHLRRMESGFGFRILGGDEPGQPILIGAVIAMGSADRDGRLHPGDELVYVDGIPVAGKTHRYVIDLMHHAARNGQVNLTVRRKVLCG
Parameters: key: below the threshold = too weak to quantify, mostly under pKd 3.1 to 4

Row | Binder | pKd
37 | VKRNSKETVV [MARCHF3, Q86UD3] | 4.21
38 | ILRKSTTTTV [PRR16, Q569H4] | 4.14

What follows are binders tested against MAST1, Q9Y2H9 (assay: holdup assay). Settings: plain residues with an end cap or a label only (N-terminal biotin on a linker: ado-ado).
Chain of MAST1, Q9Y2H9 (Q9Y2H9 962-1065): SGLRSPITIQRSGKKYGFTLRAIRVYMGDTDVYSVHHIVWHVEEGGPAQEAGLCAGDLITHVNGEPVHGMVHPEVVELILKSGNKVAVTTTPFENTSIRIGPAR
Parameters: key: below the threshold = too weak to quantify, mostly under pKd 3.1 to 4

Row | Binder | pKd
39 | VKRNSKETVV [MARCHF3, Q86UD3] | below the threshold
40 | ILRKSTTTTV [PRR16, Q569H4] | 4.29

These binders were tested against T8, MPP6, Q9NZW5 (assay: holdup assay). Settings: plain residues with an end cap or a label only (N-terminal biotin on a linker: ado-ado).
T8 sequence (Q9NZW5 125-219, limits assumed, looked up): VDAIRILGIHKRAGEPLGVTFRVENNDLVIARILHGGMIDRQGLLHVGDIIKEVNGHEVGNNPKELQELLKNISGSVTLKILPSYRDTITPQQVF
Parameters: key: below the threshold = too weak to quantify, mostly under pKd 3.1 to 4

Row | Binder | pKd
41 | VKRNSKETVV [MARCHF3, Q86UD3] | below the threshold
42 | ILRKSTTTTV [PRR16, Q569H4] | below the threshold

What follows are binders tested against NHERF2_2, Q15599 (assay: holdup assay). Settings: plain residues with an end cap or a label only (N-terminal biotin on a linker: ado-ado).
Chain of NHERF2_2, Q15599 (Q15599 142-238): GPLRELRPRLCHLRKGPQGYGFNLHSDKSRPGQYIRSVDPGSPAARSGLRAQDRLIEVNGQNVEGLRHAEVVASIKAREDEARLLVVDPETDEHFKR
Parameters: key: below the threshold = too weak to quantify, mostly under pKd 3.1 to 4

Row | Binder | pKd
43 | VKRNSKETVV [MARCHF3, Q86UD3] | below the threshold
44 | ILRKSTTTTV [PRR16, Q569H4] | below the threshold

These binders were tested against T9, PARD3B_1, Q8TEW8 (assay: holdup assay). Settings: plain residues with an end cap or a label only (N-terminal biotin on a linker: ado-ado).
T9 sequence (Q8TEW8 196-299, limits assumed, looked up): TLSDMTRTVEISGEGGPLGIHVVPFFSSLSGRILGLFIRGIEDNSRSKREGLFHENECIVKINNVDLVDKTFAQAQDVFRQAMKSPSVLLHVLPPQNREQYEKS
Parameters: key: below the threshold = too weak to quantify, mostly under pKd 3.1 to 4

Row | Binder | pKd
45 | VKRNSKETVV [MARCHF3, Q86UD3] | below the threshold
46 | ILRKSTTTTV [PRR16, Q569H4] | below the threshold

What follows are binders tested against SCRIB_1, Q14160 (assay: holdup assay). Settings: plain residues with an end cap or a label only (N-terminal biotin on a linker: ado-ado).
Chain of SCRIB_1, Q14160 (Q14160 718-814): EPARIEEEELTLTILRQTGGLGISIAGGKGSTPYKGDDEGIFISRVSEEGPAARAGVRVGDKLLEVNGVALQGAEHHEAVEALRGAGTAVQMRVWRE
Parameters: key: below the threshold = too weak to quantify, mostly under pKd 3.1 to 4

Row | Binder | pKd
47 | VKRNSKETVV [MARCHF3, Q86UD3] | 4.55
48 | ILRKSTTTTV [PRR16, Q569H4] | 3.76

The binders below were run against T10, SNTA1, Q13424 (assay: holdup assay). Settings: plain residues with an end cap or a label only (N-terminal biotin on a linker: ado-ado).
T10 sequence (Q13424 82-180, limits assumed, looked up): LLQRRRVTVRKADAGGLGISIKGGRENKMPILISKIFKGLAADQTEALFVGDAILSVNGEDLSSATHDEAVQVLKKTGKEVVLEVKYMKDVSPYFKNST
Parameters: key: below the threshold = too weak to quantify, mostly under pKd 3.1 to 4

Row | Binder | pKd
49 | VKRNSKETVV [MARCHF3, Q86UD3] | 5.37
50 | ILRKSTTTTV [PRR16, Q569H4] | 3.92

Each binder was assayed against T11, SNTG1, Q9NSN8 (assay: holdup assay). Settings: plain residues with an end cap or a label only (N-terminal biotin on a linker: ado-ado).
T11 sequence (Q9NSN8 52-150, limits assumed, looked up): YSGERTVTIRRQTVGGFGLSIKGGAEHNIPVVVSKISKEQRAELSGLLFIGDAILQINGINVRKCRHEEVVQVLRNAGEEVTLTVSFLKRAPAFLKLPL
Parameters: key: below the threshold = too weak to quantify, mostly under pKd 3.1 to 4

Row | Binder | pKd
51 | VKRNSKETVV [MARCHF3, Q86UD3] | 4.13
52 | ILRKSTTTTV [PRR16, Q569H4] | 3.49
